*1 amine or outer side, *2 acyl side, *3 side chain or, on linkers, in order; H or OH if unused. Side-chain parts run from the residue outwards. The star is where a group is joined. Succinyl(4-O-cholesteryl) = CC(C)CCC[C@@H](C)[C@H]1CC[C@H]2[C@@H]3CC=C4C[C@@H](OC(=O)CCC(=O)*)CC[C@]4(C)[C@H]3CC[C@]12C; Suc = O=C(CCC(=O)[*:2])[*:1]
Experiments:
Assay in all cases: cell-based or functional assay
[1] = target: F protein of RSV A long virus strain (Respiratory Syncytial Virus (RSV) A …, UniProt P12568 26-574)
[2] = target: F protein of hMPV virus strain A2 (human metapneumovirus (hMPV) A2)
[3] = target: F protein of hMPV virus strain B1 (human metapneumovirus (hMPV) B1)
[4] = target: F protein of hPIV Type 3 (hPIV3 C243) (human Parainfluenza Virus type 3 (hPIV3 …))

Sequence of F protein of RSV A long virus strain (P12568 26-574): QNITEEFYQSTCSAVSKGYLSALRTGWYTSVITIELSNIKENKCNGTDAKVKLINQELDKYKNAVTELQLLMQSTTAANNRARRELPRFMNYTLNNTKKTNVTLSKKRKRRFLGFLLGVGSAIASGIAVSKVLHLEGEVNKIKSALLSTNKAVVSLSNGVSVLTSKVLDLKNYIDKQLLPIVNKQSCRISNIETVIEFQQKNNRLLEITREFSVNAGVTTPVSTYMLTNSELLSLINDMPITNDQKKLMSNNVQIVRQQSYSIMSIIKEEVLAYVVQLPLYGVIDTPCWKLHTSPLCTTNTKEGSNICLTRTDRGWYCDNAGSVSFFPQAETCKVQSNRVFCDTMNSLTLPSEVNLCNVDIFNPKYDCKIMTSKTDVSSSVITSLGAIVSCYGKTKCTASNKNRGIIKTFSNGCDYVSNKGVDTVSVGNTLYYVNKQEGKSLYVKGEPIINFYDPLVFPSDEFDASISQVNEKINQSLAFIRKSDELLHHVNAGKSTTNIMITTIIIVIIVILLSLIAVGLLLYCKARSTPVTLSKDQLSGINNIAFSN

| Binder | IC50/nM, plaque reduction, RSV A long on HEp-2 cells (Table 2, Cell fusion inhibition activity) [1] | EC50 (nM), plaque reduction, hMPV A2 on Vero cells [2] | EC50 (nM), plaque reduction, hMPV B1 on Vero cells [3] | EC50 (nM), plaque reduction, hPIV3 C243 on LLC-MK2 cells [4] |
| --- | --- | --- | --- | --- |
| Ac-DEFDKKIEEVNKKIEESLKKIEESDKKLEAAAKK(Succinyl(4-O-cholesteryl))-NH2 [Compound 17] | 17.6 nM | 8.78 nM | 3.61 nM | 52.6 nM |
| Ac-WDEFDASISQVNEKINQSLEEIRKSDELLHNVNAGLGSGSGK([Suc-Succinyl(4-O-cholesteryl)])-NH2 [Compound 27] | 25.7 nM | 78.3 nM | 10.5 nM | 27.2 nM |
| Ac-LVKKIDEFDASISQVNEKINQSLEEIRKSDELLHNVGSGSGK([Suc-Succinyl(4-O-cholesteryl)])-NH2 [Compound 29] | 19.3 nM | 41.6 nM | 11.1 nM | 26.3 nM |
| Ac-WDEFDKKIEEVNKKIEESLKKIEESDKKLEEVNEAAAKK([Suc-Succinyl(4-O-cholesteryl)])-NH2 [Compound 41] | 14.8 nM | 11.7 nM | 9.46 nM | 71.1 nM |
| Ac-WDEFDASIEEVNRRIEESLRRIEESDRRLEEVEAAAKK([Suc-Succinyl(4-O-cholesteryl)])-NH2 [Compound 43] | 18.3 nM | 16.8 nM | 8.01 nM | 16.1 nM |
| Ac-DEFDKKKIEEVNKKIEESLKKIEESDKKLEEVEAAAKK([Suc-Succinyl(4-O-cholesteryl)])-NH2 [Compound 22] | 11.3 nM | 88.4 nM | 18 nM | 65.4 nM |
| Ac-YDELVFDASQVNEKINQSLEKIRKSDELLHNVEAAAKK([Suc-Succinyl(4-O-cholesteryl)])-NH2 [Compound 30] | 14.9 nM | 94.8 nM | 51.3 nM | 48.2 nM |
| Ac-DEFDKKIEEVNKKIEESLKKIEESDKKLEEVEAAAKK([Suc-Succinyl(4-O-cholesteryl)])-NH2 [Compound 21] | 14.6 nM | 11.2 nM | 4.92 nM | 21.3 nM |
| Ac-FDASIEEVNRRIEESLRRIEESDRRLEEVNAEAAAKK([Suc-Succinyl(4-O-cholesteryl)])-NH2 [Compound 42] | 11.8 nM | 26.1 nM | 10.1 nM | 18.9 nM |
| Ac-WDEFDKKIEEVNKKIEESLKKIEESDKKLEEVNAEAAAKK([Suc-Succinyl(4-O-cholesteryl)])-NH2 [Compound 40] | 11.7 nM | 13.8 nM | 7.47 nM | 22.2 nM |
| Ac-FDEEISQVNEKINQSLAFIRKSDELLHNVNAGKSTTEAAAKK([Suc-Succinyl(4-O-cholesteryl)])-NH2 [Compound 26] | 12.8 nM | 103 nM | 2.85 nM | 1.35 nM |
| Ac-WDEFDASISQVNEKINQSLEEIRKSDELLHNVNALEAAAKK([Suc-Succinyl(4-O-cholesteryl)])-NH2 [Compound 38] | 14.6 nM | 128 nM | 16.6 nM | 26.4 nM |
| Ac-YDELVFDASQVNEKINQSLEKIRKSDELLHNVGSGSGK([Suc-Succinyl(4-O-cholesteryl)])-NH2 [Compound 25] | 28.7 nM | 86.4 nM | 38.1 nM | 29.4 nM |
| Ac-DEFDASISQVNEKINQSLEEIRKSDELLHNEAAAKK([Suc-Succinyl(4-O-cholesteryl)])-NH2 [Compound 28] | 12.4 nM | 58.6 nM | 13.8 nM | 54.4 nM |
| Ac-SDEFDKKIEEVNKKIEESLKKIEESDKKLGSGSGK([Suc-Succinyl(4-O-cholesteryl)])-NH2 [Compound 20] | 19.8 nM | 7.47 nM | 4.27 nM | 59.5 nM |

Source: patent EP4792821A2 (Beijing Youcare Kechuang Pharmaceutical Technology Co., Ltd., dated 2026)
